The term stoichiometry N denotes the number of molecules, sites or subunits per partner or assembly.

This note sets out measurements from publication PMC4615642 (RNA Biology, 2015).

The data set “SEC-MALS” concerns the molecule itself. Kind of data set: SEC-MALS. For orientation: Size exclusion chromatography separates by hydrodynamic size, large species first.
Data set [1] has as its target T1, Myo4p-C (C-terminal cargo-binding region of Myo4p, amino acids 923-1471, His6 fusion) (S. cerevisiae, UniProt P32492 923-1471).
T1 sequence (looked up): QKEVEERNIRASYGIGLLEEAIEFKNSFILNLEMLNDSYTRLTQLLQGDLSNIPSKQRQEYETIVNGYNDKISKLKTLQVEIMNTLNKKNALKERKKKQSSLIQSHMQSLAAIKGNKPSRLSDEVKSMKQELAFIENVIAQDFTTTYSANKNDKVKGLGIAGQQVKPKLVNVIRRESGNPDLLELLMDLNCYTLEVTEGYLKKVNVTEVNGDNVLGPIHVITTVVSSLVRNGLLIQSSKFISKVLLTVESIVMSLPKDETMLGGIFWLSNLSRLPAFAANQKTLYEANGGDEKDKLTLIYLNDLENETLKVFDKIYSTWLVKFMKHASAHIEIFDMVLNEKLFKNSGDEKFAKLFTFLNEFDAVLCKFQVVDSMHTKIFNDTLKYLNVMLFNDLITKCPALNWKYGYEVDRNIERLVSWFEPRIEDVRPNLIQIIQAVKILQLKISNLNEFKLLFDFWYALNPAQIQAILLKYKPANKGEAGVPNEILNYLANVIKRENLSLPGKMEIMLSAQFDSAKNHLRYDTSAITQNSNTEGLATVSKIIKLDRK
Kind of data set: SEC-MALS.

B1: She3p-His6 (full-length She3p) (natural protein, S. cerevisiae, UniProt P38272 1-425, looked up)
chain: MSDQDNTQTSSSKLAPHHNIFMANLESSPTKDRNTSSQNASSSRVIESLHDQIDMLTKTNLQLTTQSQNLLSKLELAQSKESKLLENLNLLKNENENLNSIFERKNKKLKELEKDYSELSNRYNEQKEKMDQLSKLAKNSSAIEQSCSEKLQNMEVNYNSLLESQNLYRDHYSDEISKLNEKIGLLELELSNQNLNYGSDTSSNSDIELNLNKFNDSVKDLKSLETEKDSKLSKIITHSLDELNLQSWLNLYQTNENLISTFAEKMDLKDVLKRNDEKISNKGAVVQTLKKNVQTQVESNNADALSSNNAQDMLPIKMVKLRKTPNTNDSSSNGNSSNNKRRSFYTASPLLSSGSIPKSASPVLPGVKRTASVRKPSSSSSKTNVTHNNDPSTSPTISVPPGVTRTVSSTHKKKGNSMVVHGAQS
Regarding B1, the “stoichiometry N” value amounted to 2 in the data set “SEC-MALS” and 2 She3p per Myo4p in data set [1].
